According to patent US9322000B2, “Methanol dehydrogenase enzymes from Bacillus” (Sinvent AS, priority 2012, dated 2016):

Columns and labels:
[1] = Substrate specificity of purified MDH proteins on alternative alcohols; type: biochemical; details: all alternative alcohol substrates
Experimental: FIG. 3. Catalytic activities of purified Mdh (black), Mdh2 (dark grey) and Mdh3 (light grey) on various alcohols (200 mM) tested in vitro. (A) Substrate specificity was analysed for MDHs from B. methanolicus MGA3 in vitro. Alcohol substrates were used at concentrations of 500 mM except for pentanol (300 mM) and hexanol (50 mM). The data were calculated from the mean value from two experiments which were done in triplicate. (B) Substrate specificity for MDHs from B. methanolicus PB1 was analysed in vitro. Alcohol substrates were used at concentrations of 500 mM except for pentanol (300 mM) and hexanol (50 mM). The data were calculated from the mean value from two experiments which were done in triplicate.
Alcohol dehydrogenase activities were measured spectrophotometrically essentially as described previously (Hektor, Kloosterman et al. (2002) Chem 277(49): 46966-46973) and the reaction mixture contained: 100 mM Glycine-KOH pH 9.5 (unless otherwise stated), 5 mM MgSO4, 0.5 mM NAD^+ and 500 mM alcohol (methanol, ethanol, propanol, 1,3-propanediol, or butanol). NAD^+ was substituted with equal concentrations of NADP^+, FMN^+, and FAD^+, when indicated. […] The reactions were started by addition of 5-40 μg of the purified MDH proteins, and the production of NADH was monitored at 340 nm for 4 minutes. […]

13C-methanol [2] = assay: 13C-methanol labeling of genetically engineered B. subtilis; type: cell-based; details: B. subtilis 168 expressing Act, Mdh3, HxlA
Experimental: For the labeling experiments we used the B. subtilis strain that expresses Act, Mdh3, HxlA and HxlB and the strain that expresses Act, Mdh3, HxlA, HxlB, GlpX, Fba, Tkt, Pfk and Rpe. As a negative control the B. subtilis strain with the empty pHCMC04 plasmid was used. All B. subtilis strains were grown on M9 medium containing (per liter) 3.48 g Na2HPO4.12H20, 0.60 g of KH2PO4, 0.51 g of NaCl, 2.04 g of NH4Cl, 0.10 g of MgSO4, 4.38 mg of CaCl2, 15 mg of Na2EDTA.2H2O, 4.5 mg of ZnSO4.7H2O, 0.3 mg of CoCl2.6 H2O, 1 mg of MnCl2.4H2O, 1 mg of H3BO3, 0.4 mg of Na2MoO4.2H2O, 3 mg of FeSO4.7H2O and 0.3 mg of CuSO4.5H2O, 10 g of xylose (i.e. inducer) and 5 mg of chloramphenicol. All the cultivations were performed at 37° C. Cells strains were plated from a glycerol stock on a LB agar plate (10 g/l of tryptone, 5 g/l of yeast extract, 10 g/l of NaCl, and 16 g/l agar) containing 5 μg/ml of chloramphenicol and grown afterwards on a LB+chloramphenicol liquid medium for approximately 5 hours. The liquid pre-cultures containing M9 medium were inoculated from the LB cultures at a final OD600 between 1.4 and 1.8. […] The labeling patterns of intracellular metabolites were measured using a Dionex ICS 2000 system (Dionex, Sunnyvale, USA) coupled to a triple quadrupole QTrap 4000 mass spectrometer (Applied Biosystems, Foster City, USA).

13C-methanol [3] = assay: 13C-methanol labeling of genetically engineered C. glutamicum; type: cell-based; details: C. glutamicum delta ald expressing Mdh2, Hps and Phi; 40 mM 13C-methanol; 30 and 90 minutes
Experimental: For the labeling experiments we used the C. glutamicum delta ald strain that expresses Mdh2-MGA3 (pVWEx1-Mdh2), Hps and Phi (pEKEX3−Hps+Phi). As a negative control the C. glutamicum delta ald strain with the empty pEKEX3 plasmid was used. All C. glutamicum strains were grown on M9 medium containing (per liter) 3.48 g Na2HPO4.12 H2O, 0.60 g of KH2PO4, 0.51 g of NaCl, 2.04 g of NH4Cl, 0.10 g of MgSO4, 4.38 mg of CaCl2, 15 mg of Na2EDTA.2H2O, 4.5 mg of ZnSO4.7 H2O, 0.3 mg of CoCl2.6 H2O, 1 mg of MnCl2.4H2O, 1 mg of H3BO3, 0.4 mg of Na2MoO4.2H2O, 3 mg of FeSO4.7H2O and 0.3 mg of CuSO4.5H2O. For all the cultivation (M9 or LB), 1 mM of IPTG was used as inducer and 100 μg/ml of spectinomycin and 25 μg/ml of kanamycin were added in the medium as resistant markers. All the cultivations were performed at 30° C. Cell strains were plated from a glycerol stock on a LB agar plate (10 g/l of tryptone, 5 g/l of yeast extract, 10 g/l of NaCl, and 16 g/l agar) and grown afterwards on a LB liquid medium for 6 hours. The liquid pre-cultures containing M9 medium plus 3 g/l ribose were inoculated from the LB cultures at a final OD600 of 0.6 for 12 hours. […] The labeling patterns of intracellular metabolites were measured using a Dionex ICS 2000 system (Dionex, Sunnyvale, USA) coupled to a triple quadrupole QTrap 4000 mass spectrometer (Applied Biosystems, Foster City, USA).

Molecule | catalytic activity on alternative alcohols compared with the remaining MDHs [1] | 13C labeling of metabolites (mass isotopomer fraction M1) (13C-methanol [2]; HxlB plus overexpressed PPP genes) | 13C labeling of metabolites (mass isotopomer fraction M1) (13C-methanol [2]; HxlB, no PPP genes overexpressed) | 13C label incorporation into metabolites (mass isotopomer fraction M1) (13C-methanol [3])
Mdh3-MGA3: NAD-dependent methanol dehydrogenase encoded by chromosomal gene mdh3 of B. methanolicus MGA3, SEQ ID NO. 4 (protein, Bacillus methanolicus MGA3) MKNTQSAFYMPSVNLFGAGSVNEVGTRLAGLGVKKALLVTDAGLHSLGLSEKIAGIIREAGVEVAIFPKAEPNPTDKNVAEGLEAYNAENCDSIVTLGGGSSHDAGKAIALVAANGGTIHDYEGVDVSKKPMVPLIAINTTAGTGSELTKFTIITDTERKVKMAIVDKHVTPTLSINDPELMVGMPPSLTAATGLDALTHAIEAYVSTGATPITDALAIQAIKIISKYLPRAVANGKDIEAREQMAFAQSLAGMAFNNAGLGYVHAIAHQLGGFYNFPHGVCNAILLPHVCRFNLISKVERYAEIAAFLGENVDGLSTYEAAEKAIKAIERMARDLNIPKGFKELGAKEEDIETLAKNAMNDACALTNPRKPKLEEVIQIIKNAM | significantly higher catalytic activity than the remaining enzymes | significant labeling incorporation was detected | no labeling was found | 
Mdh2-MGA3: NAD-dependent methanol dehydrogenase encoded by chromosomal gene mdh2 of B. methanolicus MGA3, SEQ ID NO. 2 (protein, Bacillus methanolicus MGA3) MTNTQSAFFMPSVNLFGAGSVNEVGTRLADLGVKKALLVTDAGLHGLGLSEKISSIIRAAGVEVSIFPKAEPNPTDKNVAEGLEAYNAENCDSIVTLGGGSSHDAGKAIALVAANGGKIHDYEGVDVSKEPMVPLIAINTTAGTGSELTKFTIITDTERKVKMAIVDKHVTPTLSINDPELMVGMPPSLTAATGLDALTHAIEAYVSTGATPITDALAIQAIKIISKYLPRAVANGKDIEAREQMAFAQSLAGMAFNNAGLGYVHAIAHQLGGFYNFPHGVCNAVLLPYVCRFNLISKVERYAEIAAFLGENVDGLSTYDAAEKAIKAIERMAKDLNIPKGFKELGAKEEDIETLAKNAMKDACALTNPRKPKLEEVIQIIKNAM |  |  |  | Significant label incorporation into metabolites was observed
